Source: PMC11665475, “The CTR hydrophobic residues of Nem1 catalytic subunit are required to form a protein phosphatase complex with Spo7 to activate yeast Pah1 PA phosphatase” (The Journal of Biological Chemistry, 2024)
Substitutions are numbered along the chain they refer to.

Columns and labels:
Assay in all cases: cell-based or functional assay
[1] = target: T1, protein A-tagged Nem1 Δ(414–446) (S. cerevisiae, UniProt P38757 1-413)
T1 sequence (looked up): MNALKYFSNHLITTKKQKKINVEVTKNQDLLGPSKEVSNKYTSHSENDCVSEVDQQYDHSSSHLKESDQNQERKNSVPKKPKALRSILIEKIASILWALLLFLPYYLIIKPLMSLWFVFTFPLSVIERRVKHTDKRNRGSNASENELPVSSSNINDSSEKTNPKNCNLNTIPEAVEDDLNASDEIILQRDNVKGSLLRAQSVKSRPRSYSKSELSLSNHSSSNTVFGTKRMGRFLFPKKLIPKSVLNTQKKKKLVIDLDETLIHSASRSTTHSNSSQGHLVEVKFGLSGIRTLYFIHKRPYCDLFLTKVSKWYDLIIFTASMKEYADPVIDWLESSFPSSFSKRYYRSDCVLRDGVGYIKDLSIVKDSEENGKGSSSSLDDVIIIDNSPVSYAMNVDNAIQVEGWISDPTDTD

[2] = target: T2, protein A-tagged Nem1 8A (S. cerevisiae, UniProt P38757 1-446, L414 A | L415 A | L417 A | L418 A | L421 A | V430 A | L434 A | L436 A)
T2 sequence (looked up): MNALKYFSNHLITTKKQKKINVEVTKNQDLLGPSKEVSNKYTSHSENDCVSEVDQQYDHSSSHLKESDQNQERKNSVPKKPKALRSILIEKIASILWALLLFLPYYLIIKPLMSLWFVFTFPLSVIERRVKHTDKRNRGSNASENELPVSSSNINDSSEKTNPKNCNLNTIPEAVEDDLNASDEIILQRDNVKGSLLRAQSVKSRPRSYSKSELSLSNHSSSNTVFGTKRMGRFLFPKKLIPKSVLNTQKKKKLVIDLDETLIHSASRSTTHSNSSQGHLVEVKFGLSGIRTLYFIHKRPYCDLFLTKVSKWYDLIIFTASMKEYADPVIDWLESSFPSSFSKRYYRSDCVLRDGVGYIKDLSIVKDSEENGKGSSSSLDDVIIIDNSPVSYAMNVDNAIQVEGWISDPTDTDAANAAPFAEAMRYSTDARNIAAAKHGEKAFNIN

[3] = target: T3, protein A-tagged Nem1 8R (S. cerevisiae, UniProt P38757 1-446, L414 R | L415 R | L417 R | L418 R | L421 R | V430 R | L434 R | L436 R)
T3 sequence (looked up): T2 sequence (looked up) with A414R, A415R, A417R, A418R, A421R, A430R, A434R, A436R

share of purified phosphorylated Pah1 found in the pellet of membranes containing the Nem1-PtA variant and Spo7 after centrifugation at 100,000g (translocation of Pah1 to membranes) [1]: ≤ 20% | share of purified phosphorylated Pah1 found in the pellet of membranes containing the Nem1-PtA variant and Spo7 after centrifugation at 100,000g (translocation of Pah1 to membranes) [2]: ≤ 20% | share of purified phosphorylated Pah1 found in the pellet of membranes containing the Nem1-PtA variant and Spo7 after centrifugation at 100,000g (translocation of Pah1 to membranes) [3]: ≤ 20%
B1: Spo7 (natural protein, S. cerevisiae, UniProt P18410 1-259, looked up)
chain: MEPESIGDVGNHAQDDSASIVSGPRRRSTSKTSSAKNIRNSSNISPASMIFRNLLILEDDLRRQAHEQKILKWQFTLFLASMAGVGAFTFYELYFTSDYVKGLHRVILQFTLSFISITVVLFHISGQYRRTIVIPRRFFTSTNKGIRQFNVKLVKVQSTWDEKYTDSVRFVSRTIAYCNIYCLKKFLWLKDDNAIVKFWKSVTIQSQPRIGAVDVKLVLNPRAFSAEIREGWEIYRDEFWAREGARRRKQAHELRPKSE
